This note sets out measurements from patent publication US20250136687A1 (SHANDONG SIMCERE BIOPHARMACEUTICAL, published 2025).

Like-named read-outs stand apart in the source and are kept apart here.

The target in test [1] is T1, cynomolgus monkey CD3 on the surface of expanded monkey T cells (cynomolgus monkey, UniProt Q95LI5 22-198; Q95LI8 22-171; Q95LI7 23-181).
T1 construct: whole, on cells; Endogenous CD3 within the TCR-CD3 complex on T cells expanded from cynomolgus monkey PBMC
The test is described as follows: FACS, expanded monkey T cells, 4 nM antibody. The procedure:
(§1) The binding of the chimeric antibodies to CD3 on the cell surface was analyzed by detecting the binding of the antibodies to Jurkat cells and human T cells. Suspension cells Jurkat cells were scale-up cultured in T-75 cell culture flasks to the logarithmic growth phase, the supernatant of the medium was discarded by centrifugation, and the cell pellet was washed 2 times with PBS for later use. The expanded human T cells were washed 2 times with PBS for later use. After counting the cells in the previous step, the cell pellet was resuspended with [PBS+2% (w/w) BSA] blocking solution to 4×10⁶ cells/ml, and added to a 96-well FACS reaction plate at 50 μl/well, and then the chimeric antibody to be tested was added at 50 μl/well, and incubated at 4° C. for 1 h. The cells were centrifuged and washed 3 times with a PBS buffer. […] The cells were centrifuged and washed 5 times with PBS, and FACS (FACS Canto™, purchased from BD Company) was used for detection and result analysis. Data analysis was performed by software (CellQuest) to obtain the mean fluorescence […] (MFI) of the cells. And then software (GraphPad Prism8) was used for analysis, data fitting, and EC50 value calculation. The same method was used to simultaneously detect the binding of the chimeric antibodies to endogenous CD3 negative cells MOLT4 cells.
FACS detection and data analysis were performed on the cryopreserved monkey T cells of Example 2.4 according to the method in Example 5.1.

The target of test [2] is T2, human CD3 on the cell surface (Jurkat cells, expanded human T cells, Jurkat-Lucia NFAT cells, human PBMC) (human, UniProt P07766 23-207; P04234 22-171; P09693 23-182).
T2 construct: whole, on cells; Endogenous CD3 within the TCR-CD3 complex on cells (also zeta chains and TCR); the cell type is named under assay
T2 sequence (P07766 23-207, chain 1 of 3): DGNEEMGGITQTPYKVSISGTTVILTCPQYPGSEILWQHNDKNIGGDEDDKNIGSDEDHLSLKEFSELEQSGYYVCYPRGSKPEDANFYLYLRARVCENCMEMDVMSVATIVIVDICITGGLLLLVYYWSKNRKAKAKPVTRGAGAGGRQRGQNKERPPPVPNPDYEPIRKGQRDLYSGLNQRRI
T2 sequence (P04234 22-171, chain 2 of 3): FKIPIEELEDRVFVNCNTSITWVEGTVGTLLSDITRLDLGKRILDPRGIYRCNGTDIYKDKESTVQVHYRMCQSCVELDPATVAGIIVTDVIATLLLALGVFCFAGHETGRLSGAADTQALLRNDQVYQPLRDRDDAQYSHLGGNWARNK
T2 sequence (P09693 23-182, chain 3 of 3): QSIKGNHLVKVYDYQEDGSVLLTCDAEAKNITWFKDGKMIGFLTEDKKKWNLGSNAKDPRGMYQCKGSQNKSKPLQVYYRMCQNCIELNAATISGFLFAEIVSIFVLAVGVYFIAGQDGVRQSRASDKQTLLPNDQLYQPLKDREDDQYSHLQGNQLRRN
The test is described as follows: FACS, expanded human T cells. In general terms: Flow cytometry measures light scatter and fluorescence of single cells or particles in a stream.

Test [3] addresses T3, human CD3ε/δ-His (human, UniProt P07766 23-126; P04234 22-105).
T3 construct: Bought recombinant heterodimer with His tag; also called human CD3ε/δ protein
The test is described as follows: ELISA, coated antigen. The procedure: (§2) To detect the binding activity of the humanized antibodies to CD3 protein, CD3 protein was diluted with PBS to the final concentration of […], then added to a 96-well ELISA plate at 50 μL/well, and the plate was sealed with a plastic film, and incubated overnight at 4° C. On the next day, the plate was washed 2 times with PBS, and a blocking solution [PBS+2% (v/v) BSA] was added for blocking at room temperature for 2 h. The blocking solution was poured off, and the antibody (initial concentration of 100 nM, and gradient dilution at 1:10) or a negative control antibody was added at 50 µl/well. After incubation at 37° C. for 2 h, the plate was washed 3 times with PBS. […] TMB substrate was added at 50 μl/well, and incubated at room temperature for 10 min, and then a stop solution (1.0 N HCl) was added at 50 μl/well. The OD450 nm values were read by an ELISA microplate reader (Multimode Plate Reader, EnSight, purchased from Perkin Elmer).
A general note: ELISA stands for enzyme-linked immunosorbent assay.

The target of test [4] is T4, recombinant human CD3ε-ECD His protein (human, UniProt P07766 23-126).
T4 construct: extracellular domain; also called human CD3ε-His; CD3ε antigen protein; not shown: His tag
T4 sequence (P07766 23-126): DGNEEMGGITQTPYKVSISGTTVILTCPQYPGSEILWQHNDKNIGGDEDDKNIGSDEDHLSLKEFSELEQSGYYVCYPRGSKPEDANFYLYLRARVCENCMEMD
The test is described as follows: ELISA, coated antigen. As for the experimental part: as §2

Test [5] has as its target T3, human CD3ε/δ-His. The experiment in a line: ELISA, coated antigen. This is another data set of the same source.
Test [6] addresses T4, recombinant human CD3ε-ECD His protein. The test is described as follows: ELISA, coated antigen. This is another data set of the same source.
Test [7] concerns the target T2, human CD3 on the cell surface (Jurkat …). The test is described as follows: cell-based or functional assay.
The target is the same in test [8]. The test is described as follows: cell-based or functional assay. This is another data set of the same source.
The target is the same in test [9]. The test is described as follows: FACS, expanded human T cells. As for the experimental part:
as §1
The source holds these as a separate data set.

For test [10] the target is unchanged. The test is described as follows: cell-based or functional assay. This is another data set of the same source.
For test [11] the target is unchanged. The test is described as follows: FACS, Jurkat cells. As for the experimental part:
as §1

The target is the same in test [12]. The experiment in a line: FACS, expanded human T cells. The procedure: as §1
The source holds these as a separate data set.

The target of test [13] is T1, cynomolgus monkey CD3 on the surface of …. The test is described as follows: FACS, expanded monkey T cells.
Test [14] has as its target T2, human CD3 on the cell surface (Jurkat …). The test is described as follows: cell-based or functional assay. This is another data set of the same source.

T1 sequence (Q95LI5 22-198, chain 1 of 3): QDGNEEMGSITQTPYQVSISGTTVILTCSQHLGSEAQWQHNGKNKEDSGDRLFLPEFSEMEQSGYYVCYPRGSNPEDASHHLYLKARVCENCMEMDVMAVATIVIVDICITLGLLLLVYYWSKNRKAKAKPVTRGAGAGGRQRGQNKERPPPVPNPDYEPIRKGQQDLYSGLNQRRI
T1 sequence (Q95LI8 22-171, chain 2 of 3): as the sequence (P04234 22-171, chain 2 of 3) above, with I5V, N15K, I20V, S32T, D33N, I34N, T64A, S74N, V83L, H141R counted along it
T1 sequence (Q95LI7 23-181, chain 3 of 3): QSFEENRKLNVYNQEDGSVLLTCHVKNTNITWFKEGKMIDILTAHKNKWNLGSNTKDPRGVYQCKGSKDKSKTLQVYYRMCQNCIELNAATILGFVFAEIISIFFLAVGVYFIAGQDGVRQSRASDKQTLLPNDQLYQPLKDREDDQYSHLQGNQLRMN
T3 sequence (P07766 23-126, stated change not applied, form in doubt, chain 1 of 2): as the sequence (P07766 23-126) above
T3 sequence (P04234 22-105, stated change not applied, form in doubt, chain 2 of 2): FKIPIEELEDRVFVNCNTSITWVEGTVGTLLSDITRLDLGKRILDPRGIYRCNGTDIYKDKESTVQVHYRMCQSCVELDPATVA

B1: F2B-hIgG1 (antibody, V domains shown)
VH: EVQLVESGGGLVQPGRSLRLSCAASGFTFDDYAMHWVRQAPGKGLEWVSGISWNSGSIGYADSVKGRFTISRDNAKNSLYLQMNSLRAEDTALYYCAKDSRGYGDYRLGGAYWGQGTLVTVSS
VL: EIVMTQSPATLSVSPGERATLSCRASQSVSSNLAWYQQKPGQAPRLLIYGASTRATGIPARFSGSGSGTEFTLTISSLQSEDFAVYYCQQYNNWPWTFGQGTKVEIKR
notes: also called F2Bs
The term EC50 denotes the concentration needed to bring the measured effect to its halfway point. B1: in test [1], the “MFI at antibody concentration 4 nM” value turned out to be 63 MFI. Besides, the EC50 in [2] came to 7.03 nM; in test [9], 5.71 nM; in [11] it was 6.18 nM; in test [12], 7.56 nM. For the same molecule, the values for the max_MFI in test [2] and in test [13] were 9270 MFI and 72 MFI, respectively. The max-OD450 in the test with human CD3ε/δ-His [3] was determined as 0.16 OD450; in test [4], 0.16 OD450; with human CD3ε/δ-His [5] it was 0.16 OD450; in test [6] it was 0.05 OD450. The “EC50 (nM), luciferase reporter, Jurkat-Lucia NFAT cells” value in test [7] was found to be 7.41 nM; in test [8], 23.7 nM. In addition, the “Maximum response value (RLU)” value turned out to be 6560 RLU in test [7], 14500 RLU in test [8], 8220 RLU in test [10] and 12000 RLU in test [14]. Further, the results for the MFI_Max in test [9], in [11] and in [12] were 5080 MFI, 2080 MFI and 8780 MFI, respectively.

B2: 40G5c-hIgG1 (antibody, V domains shown)
VH: EVQLVQSGAEVKKPGASVKVSCKASGYTFTNYYIHWVRQAPGQGLEWIGWIYPGDGNTKYNEKFKGRATLTADTSTSTAYLELSSLRSEDTAVYYCARDSYSNYYFDYWGQGTLVTVSS
VL: DIVMTQSPDSLAVSLGERATINCKSSQSLLNSRTRKNYLAWYQQKPGQPPKLLIYWASTRESGVPDRFSGSGSGTDFTLTISSLQAEDVAVYYCTQSFILRTFGQGTKVEIKR
Turning to B2, the “MFI at antibody concentration 4 nM” value in test [1] worked out at 41000 MFI. In addition, the EC50 in test [2] is 2.09 nM; with human CD3ε/δ-His [3] it was 0.36 nM; in test [4], 0.22 nM; in the test with human CD3ε/δ-His [5], 0.36 nM; in [6], 0.22 nM; in test [9], 0.99 nM. The figures for the concentration giving a half-maximal response (EC50) in test [11], in [12] and in test [13] were 0.47 nM, 0.46 nM and 0.89 nM, respectively. The results for the max_MFI in test [2] and in test [13] were 33500 MFI and 24100 MFI, respectively. Also, the max-OD450 with human CD3ε/δ-His [3] was determined as 2.83 OD450; in test [4], 2.59 OD450; in the test with human CD3ε/δ-His [5], 2.83 OD450; in test [6], 1.49 OD450. The “EC50 (nM), luciferase reporter, Jurkat-Lucia NFAT cells” value in test [7] came out at 5.04 nM; in [8] it was 1.74 nM; in test [10], 22.5 nM; in [14], 5.97 nM. The “Maximum response value (RLU)” value is 14300 RLU in [7], 33400 RLU in [8], 25400 RLU in test [10] and 46900 RLU in [14]. Also, the MFI_Max in test [9] is 26500 MFI; in test [11], 11300 MFI; in test [12], 40900 MFI.
